The source of these data is article PMC7145654.

Where two headings read alike, the source gives them in different places.

Data set [1] concerns the target T1, RadD (Escherichia coli, UniProt P33919 1-586).
T1 sequence: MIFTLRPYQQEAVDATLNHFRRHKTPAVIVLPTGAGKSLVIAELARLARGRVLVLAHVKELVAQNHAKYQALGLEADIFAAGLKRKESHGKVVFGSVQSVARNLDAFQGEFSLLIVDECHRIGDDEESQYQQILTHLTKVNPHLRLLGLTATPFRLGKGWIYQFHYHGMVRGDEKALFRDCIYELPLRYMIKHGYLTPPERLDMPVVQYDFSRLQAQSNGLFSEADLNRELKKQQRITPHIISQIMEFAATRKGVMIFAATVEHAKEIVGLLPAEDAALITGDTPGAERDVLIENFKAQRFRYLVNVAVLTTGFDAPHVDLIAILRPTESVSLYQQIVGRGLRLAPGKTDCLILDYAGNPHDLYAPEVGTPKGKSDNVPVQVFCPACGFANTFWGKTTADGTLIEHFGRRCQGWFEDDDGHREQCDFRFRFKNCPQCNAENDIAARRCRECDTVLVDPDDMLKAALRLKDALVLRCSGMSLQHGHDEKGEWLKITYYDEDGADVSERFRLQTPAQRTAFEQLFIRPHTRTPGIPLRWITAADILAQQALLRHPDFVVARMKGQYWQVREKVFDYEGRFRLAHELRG
Briefly: fluorescence anisotropy. On the technique in general: In fluorescence polarisation assays a small probe gives low polarisation when free and higher when bound to something large.

Data set [2] concerns the target T2, Uup (Escherichia coli, UniProt P43672 1-635). As to the kind of experiment: EMSA. On the technique in general: In EMSA bound probe runs differently from free probe, usually more slowly.
Data set [3] addresses T1, RadD. As to the kind of experiment: fluorescence anisotropy. This is another data set of the same source.
Data set [4] has as its target T2, Uup. As to the kind of experiment: EMSA. This is another data set of the same source.

T2 sequence (P43672 whole entry): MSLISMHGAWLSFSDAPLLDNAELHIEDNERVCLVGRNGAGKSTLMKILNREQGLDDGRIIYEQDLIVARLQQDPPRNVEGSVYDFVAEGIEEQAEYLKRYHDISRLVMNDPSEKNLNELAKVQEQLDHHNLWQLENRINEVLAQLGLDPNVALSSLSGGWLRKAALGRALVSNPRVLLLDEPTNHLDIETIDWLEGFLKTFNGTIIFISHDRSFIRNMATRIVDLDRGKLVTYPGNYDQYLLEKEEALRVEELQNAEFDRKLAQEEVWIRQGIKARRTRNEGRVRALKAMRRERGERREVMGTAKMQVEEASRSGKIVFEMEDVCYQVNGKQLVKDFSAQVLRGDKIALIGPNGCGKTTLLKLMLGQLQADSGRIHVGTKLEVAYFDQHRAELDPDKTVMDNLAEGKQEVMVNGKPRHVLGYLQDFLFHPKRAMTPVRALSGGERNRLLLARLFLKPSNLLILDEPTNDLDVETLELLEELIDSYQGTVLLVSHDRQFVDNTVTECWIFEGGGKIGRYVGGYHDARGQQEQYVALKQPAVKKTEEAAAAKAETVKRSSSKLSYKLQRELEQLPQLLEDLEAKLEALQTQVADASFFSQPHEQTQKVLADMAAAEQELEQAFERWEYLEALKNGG

B1: linear duplex (ZJRds1/ZJRds2) (dsDNA)
DNA 1: GCAATTAAGCTCTAAGCCATCCGCAAAAATGACCTCTTATCAAAAGGA
DNA 2: TCCTTTTGATAAGAGGTCATTTTTGCGGATGGCTAAGAGCTTAATTGC
In the case of B1, the binding result in data set [1] and in data set [2] was “no binding” each time.

B2: three-way junction (OH1/OH4/3W) (structured_DNA)
DNA 1: CCCGTGATCACCAATGCAGATTGACGAACCTTTGCCCACGT
DNA 2: GGCAGTAGGCCTAGCATGACAATCTGCATTGGTGATCACGG
DNA 3: GACGTGGGCAAAGGTTCGTCGTCATGCTAGGCCTACTGC
Consider B2, for which the binding result in data set [3] is “binds”.

B3: Holliday junction (OH1-OH4) (structured_DNA)
DNA 1: B2 DNA 1
DNA 2: GACGTGGGCAAAGGTTCGTCAATGGACTGACAGCTGCATGG
DNA 3: GCCATCCAGCTGTCAGTCCATTGTCATGCTAGGCCTACTGC
DNA 4: B2 DNA 2
As for B3, the binding result in data set [1] is “no binding”; in data set [4] it was “binds”.
